These results are taken from PMC4805664 (2016).

Square brackets hold non-standard residues; d marks the D form. * marks the point of attachment. DOTA = O=C(O)CN1CCN(CC(=O)O)CCN(CC(=O)*)CCN(CC(=O)O)CC1

A word on the IC50: it is the midpoint of a concentration-inhibition curve. Low values mean higher potency, high ones lower potency. As a reminder, the Ki is the equilibrium dissociation constant of an inhibitor or competing ligand from its target. A low value points to higher affinity.

The target in experiment [1] is T1, La-DOTA-c(RGDyK) (also: DOTA as La complex).
T1 chain: cyclo(RGD[dY]K(DOTA))
The experiment in a line: SPR competition.

In experiment [2] the target is T1, La-DOTA-c(RGDyK). In words: SPR competition.

B1: Integrin alphaVbeta3 (protein)
chain 1: FNLDVDSPAEYSGPEGSYFGFAVDFFVPSASSRMFLLVGAPKANTTQPGIVEGGQVLKCDWSSTRRCQPIEFDATGNRDYAKDDPLEFKSHQWFGASVRSKQDKILACAPLYHWRTEMKQEREPVGTCFLQDGTKTVEYAPCRSQDIDADGQGFCQGGFSIDFTKADRVLLGGPGSFYWQGQLISDQVAEIVSKYDPNVYSIKYNNQLATRTAQAIFDDSYLGYSVAVGDFNGDGIDDFVSGVPRAARTLGMVYIYDGKNMSSLYNFTGEQMAAYFGFSVAATDINGDDYADVFIGAPLFMDRGSDGKLQEVGQVSVSLQRASGDFQTTKLNGFEVFARFGSAIAPLGDLDQDGFNDIAIAAPYGGEDKKGIVYIFNGRSTGLNAVPSQILEGQWAARSMPPSFGYSMKGATDIDKNGYPDLIVGAFGVDRAILYRARPVITVNAGLEVYPSILNQDNKTCSLPGTALKVSCFNVRFCLKADGKGVLPRKLNFQVELLLDKLKQKGAIRRALFLYSRSPSHSKNMTISRGGLMQCEELIAYLRDESEFRDKLTPITIFMEYRLDYRTAADTTGLQPILNQFTPANISRQAHILLDCGEDNVCKPKLEVSVDSDQKKIYIGDDNPLTLIVKAQNQGEGAYEAELIVSIPLQADFIGVVRNNEALARLSCAFKTENQTRQVVCDLGNPMKAGTQLLAGLRFSVHQQSEMDTSVKFDLQIQSSNLFDKVSPVVSHKVDLAVLAAVEIRGVSSPDHVFLPIPNWEHKENPETEEDVGPVVQHIYELRNNGPSSFSKAMLHLQWPYKYNNNTLLYILHYDIDGPMNCTSDMEINPLRIKISSLQTTEKNDTVAGQGERDHLITKRDLALSEGDIHTLGCGVAQCLKIVCQVGRLDRGKSAILYVKSLLWTETFMNKENQNHSYSLKSSASFNVIEFPYKNLPIEDITNSTLVTTNVTWGIQPAPMPV
chain 2: GPNICTTRGVSSCQQCLAVSPMCAWCSDEALPLGSPRCDLKENLLKDNCAPESIEFPVSEARVLEDRPLSDKGSGDSSQVTQVSPQRIALRLRPDDSKNFSIQVRQVEDYPVDIYYLMDLSYSMKDDLWSIQNLGTKLATQMRKLTSNLRIGFGAFVDKPVSPYMYISPPEALENPCYDMKTTCLPMFGYKHVLTLTDQVTRFNEEVKKQSVSRNRDAPEGGFDAIMQATVCDEKIGWRNDASHLLVFTTDAKTHIALDGRLAGIVQPNDGQCHVGSDNHYSASTTMDYPSLGLMTEKLSQKNINLIFAVTENVVNLYQNYSELIPGTTVGVLSMDSSNVLQLIVDAYGKIRSKVELEVRDLPEELSLSFNATCLNNEVIPGLKSCMGLKIGDTVSFSIEAKVRGCPQEKEKSFTIKPVGFKDSLIVQVTFDCDCACQAQAEPNSHRCNNGNGTFECGVCRCGPGWLGSQCECSEEDYRPSQQDECSPREGQPVCSQRGECLCGQCVCHSSDFGKITGKYCECDDFSCVRYKGEMCSGHGQCSCGDCLCDSDWTGYYCNCTTRTDTCMSSNGLLCSGRGKCECGSCVCIQPGSYGDTCEKCPTCPDACTFKKECVECKKFDRGALHDENTCNRYCRDEIESVKELKDTGKDAVNCTYKNEDDCVVRFQYYEDSSGKSILYVVEEPECPKGPD
In the experiment with La-DOTA-c(RGDyK) [1], B1 gave an IC50 of 33 nM. In the experiment with La-DOTA-c(RGDyK) [2], this molecule showed a Ki of 26 nM.
